Tests used:
[1] = target: monoclonal antibody 12G6H5 (“Frida”); assay: inhibition ELISA FIG. 18a, low peptide, 2.5 ng Frida, coat p4073
[2] = target: monoclonal antibody 12G6H5 (“Frida”); assay: inhibition ELISA FIG. 18a, high peptide, 2.5 ng Frida, coat p4073
[3] = target: monoclonal antibody 12G6H5 (“Frida”); assay: inhibition ELISA FIG. 18c, low peptide, 2.5 ng Frida, coat p4073
[4] = target: monoclonal antibody 12G6H5 (“Frida”); assay: inhibition ELISA FIG. 18c, high peptide, 2.5 ng Frida, coat p4073
[5] = target: monoclonal antibody 12G6H5 (“Frida”); assay: inhibition ELISA FIG. 10b, 2 µg peptide, 2.5 ng Frida, coat p4073
[6] = target: monoclonal antibody 12G6H5 (“Frida”); assay: inhibition ELISA FIG. 10b, 20 µg peptide, 2.5 ng Frida, coat p4073
[7] = target: monoclonal antibody 12G6H5 (“Frida”); assay: inhibition ELISA FIG. 10a, 2 µg peptide, 2.5 ng Frida, coat p4073
[8] = target: monoclonal antibody 12G6H5 (“Frida”); assay: inhibition ELISA FIG. 10a, 20 µg peptide, 2.5 ng Frida, coat p4073

Binder	ELISA signal with competitor [1]	ELISA signal with competitor [2]	ELISA signal with competitor [3]	ELISA signal with competitor [4]	other results
CFGFPAHFSIDWLQSLS [p4475 C-…]	2.21	1.43			
CFGFPSHLIIEWLQSLS [p4433 C-…]			1.11	0.672	
CFGFPAHVFIDWLQSLN [p4474 C-…]	1.45	0.179			
CFGFPQHLFTDWLQSLS [p4481 C-…]	0.551	0.156			
CFGFPSHLIIDWLQSLS [p4325 C-…]					ELISA signal with competitor [5]: 0.42; ELISA signal with competitor [6]: 0.1
FGFPEHLLVDFLQSLSC [p1208 …-C]	0.712	0.093	0.942	0.101	
CAAFPAHAAADFLQALA [p4435 C-…]			1.28	1.97	
CFGFPAHVSFDWLQSLS [p4476 C-…]	2	1.42			
CFGFPAHVFIDWLQSLS [p4361 C-…]					ELISA signal with competitor [7]: 0.82; ELISA signal with competitor [8]: 0.16
CDFGFPAHVFIDWLQSLS [p4480 C-…]	0.521	0.103			
CFGFPEHVFIDWLQSLS [p4477 C-…]	0.808	0.116			
CAAAPAHLLVDAAQAAA [p4437 C-…]			1.84	1.67	
CFGFPAHVYIDWLQSLS [p4362 C-…]					ELISA signal with competitor [7]: 0.75; ELISA signal with competitor [8]: 0.15

More lines, main results first:

ELISA signal with competitor [1]	ELISA signal with competitor [2]	ELISA signal with competitor [3]	ELISA signal with competitor [4]	Binder	other results
2.17	1.59			CGFKPAHVFIDWLQSLS [p4479 C-…]	
		1.74	1.46	CAAFPAHLLADAAQALA [p4434 C-…]	
0.537	0.094	0.554	0.088	CFGFPEHLLVDFLQSLS [p4073 C-…, original CETP epitope]	ELISA signal with competitor [7]: 0.44; ELISA signal with competitor [5]: 0.64; ELISA signal with competitor [8]: 0.1; ELISA signal with competitor [6]: 0.15
		0.635	0.096	CFGFPSHIIIDWLQSLS [p4432 C-…]	
2.23	1.21			CFKPAHVFIDWLQSLS [p4478 C-…]	
		1.63	1.69	CAAFAAHLLADFLQAAA [p4436 C-…]	

Source: patent publication US20140179900A1
